Laboratory results published in patent US11278600B2, “Human alpha-galactosidase variants” (Codexis, Inc., priority 2014, dated 2022).

Legend:
Assay type in all cases: biochemical
[1] = HTP-analysis of supernatants pretreated with base (MUGal hydrolysis); settings: activity of the variant/activity of Rd3BB (SEQ ID NO: 13); challenge at pH 9.7
Procedure, shortened: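 GLA variants were secreted by transformed INVSc1 yeast grown 66-84 h at 30° C. Supernatants were exposed to neutral-to-basic buffers (pH 7.0-9.7) at 37° C for 1-18 h, then assayed with MUGal in acidic citrate/McIlvaine buffer, with fluorescence read after quenching.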

[2] = HTP-analysis of yeast culture supernatants, no challenge (MUGal hydrolysis); settings: activity of the variant/activity of Rd3BB (SEQ ID NO: 13)
Procedure, shortened: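 GLA variants expressed in yeast INVSc1, secreted into SD-Ura broth over 66-84 h at 30° C; clarified supernatants tested without challenge. Supernatant mixed with McIlvaine buffer pH 4.8 and 2 mM MUGal (citrate/KCl, pH 4.6), 37° C for 30-180 min, carbonate-quenched, fluorescence Ex 355/Em 448 nm.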

[3] = HTP-analysis of supernatants pretreated with acid (MUGal hydrolysis); settings: activity of the variant/activity of Rd3BB (SEQ ID NO: 13); challenge at pH 3.7
Procedure, shortened: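 Fluorescence of MUGal hydrolysis (Ex. 355 nm, Em. 448 nm) is read after sodium carbonate quench. The enzyme source is INVSc1 yeast culture supernatant, first exposed to pH 3.3-4.3 McIlvaine buffer at 37° C. for 1-3 h, then reacted at pH 4.8 for 30-180 minutes.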

Molecule | Relative Activity of GLA Variants After Challenge at pH 9.7 [1] | Relative Activity of GLA Variants After No Challenge (NC) [2] | Relative Activity of GLA Variants After Challenge at pH 3.7 [3]
550 (protein, Synthetic Polypeptide sequence of Variant No. 550 of mature Human GLA) LDNGLARTPTMGWLHWERFMCNLDCQEEPDSCISEKLFMEMAERMVSEGWKDAGYEYLCIDDCWMAPQRDSEGRLQADPQRFPHGIRQLANHVHSKGLKLGIYADVGNKTCAGFPGSFGYYDIDAQTFADWGVDLLKFDGCYCDSLENLADGYKHMSLALNRTGRSIVYSCEWPLYMWPFQKPNYTEIRQYCNHWRNFADIDDSWASIKSILDWTSRNQERIVDVAGPGGWNDPDMLVIGNFGLSWDQQVTQMALWAIMAAPLFMSNDLRHISPQAKALLQDKDVIAINQDPLGSQGYQLRKGDNFEVWERPLSGDAWAVAIINRQEIGGPRSYTIPVASLGKGVACNPACFITQLLPVKRQLGFYNWTSRLKSHINPTGTVLLQLENTMQMSLKDLL | ++ (++ = >5 to 10 relative activity over Rd3BB (SEQ ID NO: 13)) | + (+ = 1.5 to 5 relative activity over Rd3BB (SEQ ID NO: 13)) | + (+ = 1.5 to 5 relative activity over Rd3BB (SEQ ID NO: 13))
553 (protein, Synthetic Polypeptide sequence of Variant No. 553 of mature Human GLA) LDNGLARTPTMGWLHWERFMCNLDCQEEPDSCISEKLFMEMAERMVSEGWKDAGYEYLCIDDCWMAPQRDSEGRLQADPQRFPHGIRQLANHVHSKGLKLGIYADVGNKTCAGFPGSFGYYDIDAQTFADWGVDLLKFDGCYCDSLENLADGYKHMSLALNRTGRSIVYSCEWPLYMWPFQKPNYTEIRQYCNHWRNFADIDDSWASIKSILDWTSRNQERIVDVAGPGGWNDPDMLVIGNFGLSWDQQVTQMALWAIMAAPLFMSNDLRHISPQAKALLQDKDVIAINQDPLGKQGYQLRKGDNFEVWERPLSGDQWAVAIINRQEIGGPRSYTIPVASLGKGVACNPACFITQLLPVKRQLGFYNWTSRLKSHINPTGTVLLQLENTMQMSLKDLL | ++ (++ = >5 to 10 relative activity over Rd3BB (SEQ ID NO: 13)) | + (+ = 1.5 to 5 relative activity over Rd3BB (SEQ ID NO: 13)) | + (+ = 1.5 to 5 relative activity over Rd3BB (SEQ ID NO: 13))
552 (protein, Synthetic Polypeptide sequence of Variant No. 552 of mature Human GLA) LDNGLARTPTMGWLHWERFMCNLDCQEEPDSCISEKLFMEMAERMVSEGWKDAGYEYLCIDDCWMAPQRDSEGRLQADPQRFPHGIRQLANHVHSKGLKLGIYADVGNKTCAGFPGSFGYYDIDAQTFADWGVDLLKFDGCYCDSLENLADGYKHMSLALNRTGRSIVYSCEWPLYMWPFQKPNYTEIRQYCNHWRNFADIDDSWASIKSILDWTSRNQERIVDVAGPGGWNDPDMLVIGNFGLSWDQQVTQMALWAIMAAPLFMSNDLRHISPQAKALLQDKDVIAINQDPLGKQGYQLRKGDNFEVWERPLSGDDWAVAIINRQEIGGPRSYTIPVASLGKGVACNPACFITQLLPVKRQLGFYNWTSRLKSHINPTGTVLLQLENTMQMSLKDLL | ++ (++ = >5 to 10 relative activity over Rd3BB (SEQ ID NO: 13)) | + (+ = 1.5 to 5 relative activity over Rd3BB (SEQ ID NO: 13)) | + (+ = 1.5 to 5 relative activity over Rd3BB (SEQ ID NO: 13))
551 (protein, Synthetic Polypeptide sequence of Variant No. 551 of mature Human GLA) LDNGLARTPTMGWLHWERFMCNLDCQEEPDSCISEKLFMEMAERMVSEGWKDAGYEYLCIDDCWMAPQRDSEGRLQADPQRFPHGIRQLANHVHSKGLKLGIYADVGNKTCAGFPGSFGYYDIDAQTFADWGVDLLKFDGCYCDSLENLADGYKHMSLALNRTGRSIVYSCEWPLYMWPFQKPNYTEIRQYCNHWRNFADIDDSWASIKSILDWTSRNQERIVDVAGPGGWNDPDMLVIGNFGLSWDQQVTQMALWAIMAAPLFMSNDLRHISPQAKALLQDKDVIAINQDPLGTQGYQLRKGDNFEVWERPLSGDAWAVAIINRQEIGGPRSYTIPVASLGKGVACNPACFITQLLPVKRQLGFYNWTSRLKSHINPTGTVLLQLENTMQMSLKDLL | ++ (++ = >5 to 10 relative activity over Rd3BB (SEQ ID NO: 13)) | + (+ = 1.5 to 5 relative activity over Rd3BB (SEQ ID NO: 13)) | + (+ = 1.5 to 5 relative activity over Rd3BB (SEQ ID NO: 13))
554 (protein, Synthetic Polypeptide sequence of Variant No. 554 of mature Human GLA) LDNGLARTPTMGWLHWERFMCNLDCQEEPDSCISEKLFMEMAERMVSEGWKDAGYEYLCIDDCWMAPQRDSEGRLQADPQRFPHGIRQLANHVHSKGLKLGIYADVGNKTCAGFPGSFGYYDIDAQTFADWGVDLLKFDGCYCDSLENLADGYKHMSLALNRTGRSIVYSCEWPLYMWPFQKPNYTEIRQYCNHWRNFADIDDSWASIKSILDWTSRNQERIVDVAGPGGWNDPDMLVIGNFGLSWDQQVTQMALWAIMAAPLFMSNDLRHISPQAKALLQDKDVIAINQDPLGKQGYQLRKGDNFEVWERPLSGDAWAVAIINRQEIGGPRSYTIPVASLGKGVGCNPACFITQLLPVKRQLGFYNWTSRLKSHINPTGTVLLQLENTMQMSLKDLL | ++ (++ = >5 to 10 relative activity over Rd3BB (SEQ ID NO: 13)) | + (+ = 1.5 to 5 relative activity over Rd3BB (SEQ ID NO: 13)) | + (+ = 1.5 to 5 relative activity over Rd3BB (SEQ ID NO: 13))
517 (protein, Synthetic Polypeptide sequence of Variant No. 517 of mature Human GLA) LQNGLARTPTMGWLHWERFMCNLDCQEEPDSCISEKLFMEMAERMVSEGWKDAGYEYLCIDDCWMAPQRDSEGRLQADPQRFPHGIRQLANHVHSKGLKLGIYADVGNKTCAGFPGSFGYYDIDAQTFADWGVDLLKFDGCYCDSLENLADGYKHMSLALNRTGRSIVYSCEWPLYMWPFQKPNYTEIRQYCNHWRNFADIDDSWASIKSILDWTSRNQERIVDVAGPGGWNDPDMLVIGNFGLSWDQQVTQMALWAIMAAPLFMSNDLRHISPQAKALLQDKDVIAINQDPLGKQGYQLRKGDNFEVWERPLSGDAWAVAIINRQEIGGPRSYTIPVASLGKGVACNPACFITQLLPVKRQLGFYNWTSRLKSHINPTGTVLLQLENTMQMSLKDLL | + (+ = 1.5 to 5 relative activity over Rd3BB (SEQ ID NO: 13)) | + (+ = 1.5 to 5 relative activity over Rd3BB (SEQ ID NO: 13)) | + (+ = 1.5 to 5 relative activity over Rd3BB (SEQ ID NO: 13))
